Entries after “also recorded” stand apart in the source; their conditions may differ.

For one assay, the system named is ZnT-1. Kind of assay: ZnT-1 expression in cultured brain astrocytes by Western Blot. The assay is classed as cell-based. The note with it: 20 and 50 μM Zn for 12 hours (FIG. 9). As for the experimental part: (§1) Western Blots were carried out in the classical method described in Molecular Cloning—A laboratory manual by Sambroock et al., Cold Spring Harbor Laboratory Press, 2nd edition, 1989.
In astrocytes, zinc influx is mainly mediated by the LTCC. Astrocytes were treated with sub-lethal amounts (20 and 50 μM) of Zn for 12 hours, and ZnT-1 expression evaluated by Western Blot (FIG. 9b).
A general note: In western blotting, separated proteins are transferred to a membrane and probed.

Assay [1] has as its system LTCC. Kind of assay: Zinc influx in astrocytes pre-treated with zinc. Particulars: astrocytes pre-treated with 20, 50 or 100 μM zinc for 24 or 48 hours (FIG. 10). The assay is classed as cell-based. As for the experimental part: Cells were superfused with a Ringer's solution containing: 120 mM NaCl, 5 mM KCl, 20 mM glucose, 10 mM Hepes, 0.5 mM MgCl, 1.8 mM CaCl2 at pH 7.4. For depolarization experiments aimed to fully activate the LTCC, 45 mM NaCl were replaced with 45 mM KCl. ZnSO4 was added at the indicated concentration to this solution.
Cells were incubated for 30 minutes with 5 μM of the ratiometric dye Fura-2-AM (TEF Labs) in 0.1% BSA-sodium Ringer's solution. Fura-2-AM binds zinc with very high affinity. After incubation, the cells were washed in Ringer's solution and the cover glass mounted on a holder that allowed the perfusion of liquids into the cells. Signals resulting from Ca^+2 or Zn^+2 changes were distinguished by using the intracellular zinc chelator TPEN. Changes in intracellular cation concentration were monitored by a single cell imaging system, consisting of a Zeiss Axiovert 100, inverted microscope, Polychrome II monochromator (TILL Photonics) and a cooled CCD (PCO). The data was acquired and processed by Axon Imaging Workbench 2, Excel and KleidaGraph. […] The data was analyzed post acquisition, by selecting single cells (30-50) from the field of view and recording their activity.
Astrocytes were pre-treated with 20, 50 or 100 μM of zinc for 24 or 48 hours, and subsequent rates of zinc influx were determined. […]

A further assay relates to intracellular zinc. Kind of assay: Fura-2 fluorescence signal of intracellular zinc in HEK 293 cells. The assay is classed as cell-based, human. Particulars: HEK 293 cells exposed to zinc, then TPEN (FIG. 1, FIG. 3 inset). As for the experimental part: Cells were incubated for 30 minutes with 5 μM of the ratiometric dye Fura-2-AM (TEF Labs) in 0.1% BSA-sodium Ringer's solution. Fura-2-AM binds zinc with very high affinity. After incubation, the cells were washed in Ringer's solution and the cover glass mounted on a holder that allowed the perfusion of liquids into the cells. Signals resulting from Ca^+2 or Zn^+2 changes were distinguished by using the intracellular zinc chelator TPEN. Changes in intracellular cation concentration were monitored by a single cell imaging system, consisting of a Zeiss Axiovert 100, inverted microscope, Polychrome II monochromator (TILL Photonics) and a cooled CCD (PCO). The data was acquired and processed by Axon Imaging Workbench 2, Excel and KleidaGraph. Fura-2 was excited at 340 nm and 380 nm and the image obtained with a 510 nm long-pass filter. The data was analyzed post acquisition, by selecting single cells (30-50) from the field of view and recording their activity.
To measure the accumulation of intracellular zinc, HEK 293 cells were superfused with Ca-free, zinc-containing Ringer solution, and the […] of Fura-2 was evaluated. Fura-2 is a highly sensitive probe for changes in intracellular Zn^2+ concentration.

The test system of another assay is L-type Ca channel (LTCC). Kind of assay: Zinc influx into HEK 293 cells, Fura-2 fluorescence. The assay is classed as cell-based, human. Particulars: control vs ZnT-1 transfected HEK 293 cells, 400 μM zinc (FIG. 4a). As for the experimental part: (§2) PC12 and human embryonic kidney (HEK) 293 cells were grown in DMEM medium (Sigma) as described [Montrose Rafizadeh, C. et al. (1997) J. Cell Physiol. 170:299-308], and seeded on cover slides for 1-2 days prior to measurements.
(§3) HEK 293 cells were transiently transfected with 3 μg of plasmid containing ZnT-1 (kindly provided by Dr. R. D. Palmiter, Howard Hughes Medical Institute, University of Washington, Seattle, Wash.) or vector alone, using the calcium precipitation method as described [Sekler, I. et al. (1995) J Biol. Chem. 270:11251-6]. Pherochromocytoma PC12 cells were co-transfected with ZnT-1 or EYFP (Clontech) for control, using the Fugene-6 reagent (Roche). Measurements were performed 36-48 hours following transfection. […]
(§4) Cells were incubated for 30 minutes with 5 μM of the ratiometric dye Fura-2-AM (TEF Labs) in 0.1% BSA-sodium Ringer's solution. […] Changes in intracellular cation concentration were monitored by a single cell imaging system, consisting of a Zeiss Axiovert 100, inverted microscope, Polychrome II monochromator (TILL Photonics) and a cooled CCD (PCO). […] The data was analyzed post acquisition, by selecting single cells (30-50) from the field of view and recording their activity. […]
Control and ZnT-1 transfected HEK 293 cells were exposed to 400 μM zinc, and the rate of zinc influx was monitored over time (FIG. 4a-b).

The subject of assay [2] is LTCC. The experiment in a line: Zinc influx into HEK 293 cells transfected with LTCC alone or with ZnT-1. The assay is classed as cell-based, human. As for the experimental part:
as §2, §3
Cells were incubated for 30 minutes with 5 μM of the ratiometric dye Fura-2-AM (TEF Labs) in 0.1% BSA-sodium Ringer's solution. […] Changes in intracellular cation concentration were monitored by a single cell imaging system, consisting of a Zeiss Axiovert 100, inverted microscope, Polychrome II monochromator (TILL Photonics) and a cooled CCD (PCO). […] The data was analyzed post acquisition, by selecting single cells (30-50) from the field of view and recording their activity.
Rates of zinc influx into HEK293 cells transfected with LTCC only or co-transfected with LTCC and ZnT-1 were measured. […]

Another assay has as its system L-type Ca channels. The experiment in a line: Ca influx into depolarized PC12 cells expressing endogenous L-type Ca channels. The assay is classed as cell-based. Particulars: ZnT-1 transfected vs control PC12 cells, 1.8 mM calcium, high K+ (FIG. 8). As for the experimental part:
as §2
(§5) HEK 293 cells were transiently transfected with 3 μg of plasmid containing ZnT-1 (kindly provided by Dr. R. D. Palmiter, Howard Hughes Medical Institute, University of Washington, Seattle, Wash.) or vector alone, using the calcium precipitation method as described [Sekler, I. et al. (1995) J Biol. Chem. 270:11251-6]. Pherochromocytoma PC12 cells were co-transfected with ZnT-1 or EYFP (Clontech) for control, using the Fugene-6 reagent (Roche). Measurements were performed 36-48 hours following transfection.
Cells were superfused with a Ringer's solution containing: 120 mM NaCl, 5 mM KCl, 20 mM glucose, 10 mM Hepes, 0.5 mM MgCl, 1.8 mM CaCl2 at pH 7.4. […]
as §4

In another assay the test system is HEK 293 cells. Kind of assay: Zinc efflux in HEK 293 cells transfected with ZnT-1. The class given is cell-based, human. The note with it: cells transfected with ZnT-1 vs non-transfected (FIG. 3). As for the experimental part: as §2, §5
Cells were incubated for 30 minutes with 5 μM of the ratiometric dye Fura-2-AM (TEF Labs) in 0.1% BSA-sodium Ringer's solution. Fura-2-AM binds zinc with very high affinity. […] Changes in intracellular cation concentration were monitored by a single cell imaging system, consisting of a Zeiss Axiovert 100, inverted microscope, Polychrome II monochromator (TILL Photonics) and a cooled CCD (PCO). […] The data was analyzed post acquisition, by selecting single cells (30-50) from the field of view and recording their activity.

Assay [3] deals with LTCC. The experiment in a line: LTCC expression by immunoblot, HEK 293 cells transfected with LTCC. The assay is classed as cell-based, human. The note with it: presence or absence of ZnT-1 (FIG. 7). As for the experimental part: as §1
(§6) Thus, ZnT-1 putative regulation of LTCC is likely to be at the functional level, and not at the expression level.

Assay [4] relates to LTCC. The experiment in a line: LTCC expression by immunoblot, PC12 cells endogenously expressing LTCC. The class given is cell-based. Particulars: presence or absence of ZnT-1 (FIG. 7). As for the experimental part:
as §1, §6

In assay [5] the test system is LTCC. Kind of assay: Immunoprecipitation with ZnT-1 antibody and Western blot with LTCC antibody, HEK 293 cells. The class given is binding, human. The note with it: HEK 293 cells co-transfected with LTCC and ZnT-1 (FIG. 11). As for the experimental part:
as §1
(§7) Immunopercipitation using ZnT-1 antibody followed by Western blot with LTCC antibody was performed.

Assay [6] has as its system LTCC. The experiment in a line: Immunoprecipitation with ZnT-1 antibody and Western blot with LTCC antibody, cardiac tissue. The class given is binding. The note with it: mouse cardiac tissue expressing both ZnT-1 and LTCC (FIG. 11). As for the experimental part:
as §1, §7

Take `[Zn+2]` [Zinc, ZnSO4]: the ZnT-1 expression entry in the assay on ZnT-1 (listed as Zn^2+) is given as “induced by Zn^2+ in a dose-dependent manner”; in the assay with ZnT-1 (listed as Zn^+2), “induced by Zn^+2 in a dose-dependent manner”. Besides, the “rate of zinc influx” value with LTCC [1] was “reduction of zinc influx”.
Turning to `c1ccc(CN(CCN(Cc2ccccn2)Cc2ccccn2)Cc2ccccn2)nc1` [TPEN, tetrakis-(2-pyridylmethyl)ethylenediamine], in the assay on intracellular zinc, the Fura-2 fluorescence signal result was “lowered the fluorescence signal; also recorded: eliminated”.

B1: ZnT-1: protein encoded by the gene ZnT-1, originally described as a zinc transporter; GenBank Accession No. U17132; expressed by transfection (protein, UniProt Q9Y6M5 1-507, looked up)
Proton-coupled zinc …: MGCWGRNRGRLLCMLALTFMFMVLEVVVSRVTSSLAMLSDSFHMLSDVLALVVALVAERFARRTHATQKNTFGWIRAEVMGALVNAIFLTGLCFAILLEAIERFIEPHEMQQPLVVLGVGVAGLLVNVLGLCLFHHHSGFSQDSGHGHSHGGHGHGHGLPKGPRVKSTRPGSSDINVAPGEQGPDQEETNTLVANTSNSNGLKLDPADPENPRSGDTVEVQVNGNLVREPDHMELEEDRAGQLNMRGVFLHVLGDALGSVIVVVNALVFYFSWKGCSEGDFCVNPCFPDPCKAFVEIINSTHASVYEAGPCWVLYLDPTLCVVMVCILLYTTYPLLKESALILLQTVPKQIDIRNLIKELRNVEGVEEVHELHVWQLAGSRIIATAHIKCEDPTSYMEVAKTIKDVFHNHGIHATTIQPEFASVGSKSSVVPCELACRTQCALKQCCGTLPQAPSGKDAEKTPAVSISCLELSNNLEKKPRRTKAENIPAVVIEIKNMPNKQPESSL
notes: protein encoded by the gene ZnT-1, originally described as a zinc transporter; expressed by transfection
Take B1: the “rate of zinc influx” value in the assay with L-type Ca channel (LTCC) is “attenuated”. For the same molecule, the zinc influx result in the assay with LTCC [2] (HEK 293, co-expression of LTCC and ZnT-1 vs LTCC alone and non-transfected control (FIG. 6)) is given as “reduction in the zinc influx to levels comparable to control; also recorded: reduction in the cation influx to levels comparable to control”. Further, the “reduction in rate of zinc permeation through LTCC” value in the assay on LTCC [2] (HEK293 co-transfected with LTCC and ZnT-1 vs LTCC alone (FIG. 4c)) was 5 fold. The “rate of Ca influx” value in the assay with L-type Ca channels is listed as “inhibits the rate of Ca influx”. For the same molecule, the zinc efflux result with HEK 293 cells was “not accelerated”. Moreover, the LTCC expression level entry was “Neither cell type showed changes; also recorded: not changed” in the assay on LTCC [3] and “Neither cell type showed changes; also recorded: not changed; also recorded: without changing LTCC expression” with LTCC [4]. The figures for the “co-immunoprecipitation of ZnT-1 with LTCC” value in the assay with LTCC [5] and in the assay on LTCC [6] were “much higher co-immunopercipitation; also recorded: reveals a band” and “A similar effect; also recorded: reveals a band”, respectively.
